Source: patent US20210230266A1
Where two headings read alike, the source gives them in different places.

Legend:
Test in all cases: cell-based or functional assay
[1] = biological target: IL-11:IL-11Rα fusion protein (hyper IL-11) (human)
[2] = biological target: Mouse IL-11 (mouse) (UniProt P47873)
[3] = biological target: Human IL-11 (human) (UniProt P20809)
[4] = biological target: Mouse IL-11 (mouse) (UniProt P47873); remark: listed apart in the source

Chain of Human IL-11 (human) (P20809 22-199 limits assumed): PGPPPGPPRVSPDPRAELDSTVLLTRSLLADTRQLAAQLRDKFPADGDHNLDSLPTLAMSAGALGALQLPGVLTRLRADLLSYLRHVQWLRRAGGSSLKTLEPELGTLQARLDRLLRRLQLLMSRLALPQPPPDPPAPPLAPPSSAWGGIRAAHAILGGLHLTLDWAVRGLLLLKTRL
Chain of Mouse IL-11 (mouse) (P47873 22-199 limits assumed): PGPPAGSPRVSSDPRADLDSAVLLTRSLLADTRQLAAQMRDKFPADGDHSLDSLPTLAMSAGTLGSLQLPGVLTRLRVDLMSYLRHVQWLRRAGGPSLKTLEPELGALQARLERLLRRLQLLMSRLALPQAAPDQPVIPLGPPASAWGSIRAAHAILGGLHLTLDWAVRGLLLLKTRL
Chain of IL-11:IL-11Rα fusion protein (hyper IL-11) (human) (chain, as listed by the source limits assumed): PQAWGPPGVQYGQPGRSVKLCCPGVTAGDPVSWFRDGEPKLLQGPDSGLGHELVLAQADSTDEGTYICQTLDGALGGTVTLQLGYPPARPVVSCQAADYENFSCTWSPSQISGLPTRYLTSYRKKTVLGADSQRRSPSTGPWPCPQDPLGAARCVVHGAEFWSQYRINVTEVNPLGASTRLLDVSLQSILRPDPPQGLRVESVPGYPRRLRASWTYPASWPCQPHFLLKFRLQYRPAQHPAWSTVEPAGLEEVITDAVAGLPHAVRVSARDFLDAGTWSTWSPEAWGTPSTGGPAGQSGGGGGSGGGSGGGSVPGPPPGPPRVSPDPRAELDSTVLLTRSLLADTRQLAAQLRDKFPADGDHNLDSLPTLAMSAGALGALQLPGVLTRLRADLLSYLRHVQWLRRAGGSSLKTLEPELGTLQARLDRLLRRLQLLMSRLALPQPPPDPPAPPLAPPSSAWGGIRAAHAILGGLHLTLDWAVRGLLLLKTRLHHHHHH

## Monoclonal mouse anti-human IL-11 antibody, IgG2A, Clone #22626, Catalog No. MAB218 (R&D Systems)
[1]
  fold of αSMA-positive cells relative to unstimulated cells, human atrial fibroblasts + hyper IL-11 (fold of unstimulated): 1.28
  percentage of activated (αSMA-positive) fibroblasts, human atrial fibroblasts + hyper IL-11: 33.8%
[2]
  fold of αSMA-positive cells relative to unstimulated cells, mouse atrial fibroblasts + TGFβ1 (fold of unstimulated): 1.24
  percentage of activated (αSMA-positive) fibroblasts, mouse atrial fibroblasts + TGFβ1: 39.4%
[3]
  fold of αSMA-positive cells relative to unstimulated cells, human atrial fibroblasts + TGFβ1: 0.89 times
  fold of αSMA-positive cells relative to unstimulated cells, human atrial fibroblasts + TGFβ1 (fold of unstimulated): 0.99
  percentage of activated (αSMA-positive) fibroblasts, human atrial fibroblasts + TGFβ1: 28.3%
[4]
  fold of αSMA-positive cells relative to unstimulated cells, mouse atrial fibroblasts + TGFβ1 (fold of unstimulated): 1.44
  percentage of activated (αSMA-positive) fibroblasts, mouse atrial fibroblasts + TGFβ1: 43%
